Source: US20150174237A1 (HENRY M JACKSON FOUNDATION FOR THE ADVANCEMENT OF MILITARY …, published 2015)

Target: T1, mouse B cell CD21 (on mouse B cells) (mouse, UniProt P19070 12-1025)
T1 construct: whole, on cells
T1 sequence: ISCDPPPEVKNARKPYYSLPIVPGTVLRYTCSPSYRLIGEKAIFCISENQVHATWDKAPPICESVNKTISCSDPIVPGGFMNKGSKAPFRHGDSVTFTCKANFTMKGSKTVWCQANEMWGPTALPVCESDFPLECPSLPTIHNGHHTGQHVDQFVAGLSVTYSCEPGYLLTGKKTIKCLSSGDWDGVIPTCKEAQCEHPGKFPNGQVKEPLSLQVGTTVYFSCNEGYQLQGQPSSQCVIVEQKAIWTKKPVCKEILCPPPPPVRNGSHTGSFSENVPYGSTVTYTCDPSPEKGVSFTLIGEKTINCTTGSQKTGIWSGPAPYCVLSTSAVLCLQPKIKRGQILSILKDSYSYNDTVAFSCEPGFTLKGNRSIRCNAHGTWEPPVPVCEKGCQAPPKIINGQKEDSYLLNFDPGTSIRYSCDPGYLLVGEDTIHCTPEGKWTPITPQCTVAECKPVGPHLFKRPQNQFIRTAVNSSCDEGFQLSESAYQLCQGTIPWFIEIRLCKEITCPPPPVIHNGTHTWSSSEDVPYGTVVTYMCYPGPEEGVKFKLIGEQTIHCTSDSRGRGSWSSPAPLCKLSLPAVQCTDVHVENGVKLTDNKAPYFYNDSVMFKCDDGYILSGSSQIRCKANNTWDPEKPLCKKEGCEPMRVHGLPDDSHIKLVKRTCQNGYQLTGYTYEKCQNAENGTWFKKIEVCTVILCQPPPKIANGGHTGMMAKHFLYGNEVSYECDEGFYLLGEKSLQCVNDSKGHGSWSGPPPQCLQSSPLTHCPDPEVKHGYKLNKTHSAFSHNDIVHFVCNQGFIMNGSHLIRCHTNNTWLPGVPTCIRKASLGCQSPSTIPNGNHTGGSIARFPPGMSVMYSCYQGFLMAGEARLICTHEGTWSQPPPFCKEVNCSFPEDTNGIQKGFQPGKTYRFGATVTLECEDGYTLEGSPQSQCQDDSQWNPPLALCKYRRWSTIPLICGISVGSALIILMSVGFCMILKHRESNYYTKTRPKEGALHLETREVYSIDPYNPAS
Assay: not described (own observation on mouse B cells)

B1: monomeric gp350 (truncated EBV gp350, amino acids 1-470, with His6 tag) (ligand)
chain: MEAALLVCQYTIQSLIHLTGEDPGFFNVEIPEFPFYPTCNVCTADVNVTINFDVGGKKHQLDLDFGQLTPHTKAVYQPRGAFGGSENATNLFLLELLGAGELALTMRSKKLPINVTTGEEQQVSLESVDVYFQDVFGTMWCHHAEMQNPVYLIPETVPYIKWDNCNSTNITAVVRAQGLDVTLPLSLPTSAQDSNFSVKTEMLGNEIDIECIMEDGEISQVLPGDNKFNITCSGYESHVPSGGILTSTSPVATPIPGTGYAYSLRLTPRPVSRFLGNNSILYVFYSGNGPKASGGDYCIQSNIVFSDEIPASQDMPTNTTDITYVGDNATYSVPMVTSEDANSPNVTVTAFWAWPNNTETDFKCKWTLTSGTPSGCENISGAFASNRTFDITVSGLGTAPKTLIITRTATNATTTTHKVIFSKAPESTTTSPTLNTTGFADPNTTTGLPSSTHVPTNLTAPASTGPTVSTHHHHHH
  binding result: no binding
